Test: soluble on expression in E. coli; label from the status in PepcDB or PDB records

Row | Sequence | soluble on expression in E. coli
1 | MVKNVAVIVDSSFYIPKEEQQKYNIYVIPTPIIFNGRIKYDSDWSSAAKFFKDMNSAKKMPSTSMASPADVLKAFEQVRADGYRQAILMTMASGISGFYNMAVNLANDYQELDVQVWDSKFTLMISGVQALLAAELSAQGITREEIMKKVALLRDSTRVFIVVDDISHLKRTGRLAGGAALVAGLLNIKPILVFNKASKIVAIGKERQMKRAWNWLLKQYAIDAPDFDRPIRVLFADANNRALTENWQADFHEKYPDVITDFIPIGPLIGVHTGEKAVGFVYMDDWKDIARHH | not soluble
2 | MVLEATVLVIDNSEYSRNGDFPRTRFEAQIDSVEFIFQAKRNSNPENTVGLISGAGANPRVLSTFTAEFGKILAGLHDTQIEGKLHMATALQIAQLTLKHRQNKVQHQRIVAFVCSPISDSRDELIRLAKTLKKNNVAVDIINFGEIEQNTELLDEFIAAVNNPQEETSHLLTVTPGPRLLYENIASSPIILEEGSSGMGAFGGSGGDSDANGTFMDFGVDPSMDPELAMALRLSMEEEQQRQERLRQQQQQQDQPEQSEQPEQHQDK | soluble
3 | MVFNFLIVSDEVEDFRREIAIDSEATFLDLQNAILDSVGYSHSELTSFFLCDEDWHKGQEITLMEMDTASDEDSYVMENTRLEEFIEDEHQRLVFEFDLMTERYFFIEVMDIVPGKSLSEPKLLTSEGLPPQQSSLDDLMDPTAIPTKQARGLDLEEDFFGDSEYNEDEIDREGFEGFDEITSDLSDNY | not soluble
4 | MTNEKGLDKGYELVAKMHEVFGHPVTNTPTKLTEERAKIRASFMQEELEEFLEATTVEDQYDALIDLIYFAFGTFAEMGVRPDKGFEIVNNANMAKLFPDGKPRFREGDGKILKPEGWQAPEPQLRAEIERQRQEAEKNC | soluble
5 | MSRRSSSSDSAVYVNFLERERRADVEKAARLYETRRDRVEPSYVFPAPSGEKRVGPNSNTGQKGVVGSYPVSIDYLTVVFSYARLAEAGYFDEPRFLLYLLFGLSVDDVIVGSHTSVRWHFYNSSASIIDSNGDLVGKIGWDGNADSYCISLTGSACRYIHDWSKVKRSLASLDARITRCDVAYDDYDGILGTVRHHEALAREHLAPAGGCLLFSSGGTPPRTRFLDDHGGGSGCTLYVGQRGHKQLCIYEKGKQLGVAESPWVRYEVRLYAKHAVIPFDLLEEPMRYLRGSYDYLCQLFSSVVVSPVSRIRTVVKHVEATGEALVRWLRRQVGPALGVLRQALGCGFSDFIVDRVEREGLPSRFRRICRGGDLLAYLRETLIDCSVGVCV | not soluble
6 | MSLAEFIYTMKKVRKAHGDKVILDDVTLSFYPGAKIGVVGPNGAGKSSVLRIMAGLDKPNNGDAFLATGATVGILQQEPPLNEDKTVRGNVEEGMGDIKIKLDRFNEVAELMATDYTDELMEEMGRLQEELDHADAWDLDAQLEQAMDALRCPPADEPVTNLSGGERRRVALCKLLLSKPDLLLLDEPTNHLDAESVQWLEQHLASYPGAILAVTHDRYFLDNVAEWILELDRGRAYPYEGNYSTYLEKKAERLAVQGRKDAKLQKRLTEELAWVRSGAKARQAKSKARLQRYEEMAAEAEKTRKLDFEEIQIPVGPRLGNVVVEVDHLDKGYDGRALIKDLSFSLPRNGIVGVIGPNGVGKTTLFKTIVGLETPDSGSVKVGETVKLSYVDQARAGIDPRKTVWEVVSDGLDYIQVGQTEVPSRAYVSAFGFKGPDQQKPAGVLSGGERNRLNLALTLKQGGNLILLDEPTNDLDVETLGSLENALLNFPGCAVVISHDRWFLDRTCTHILAWEGDDDNEAKWFWFEGNFGAYEENKVERLGVDAARPHRVTHRKLTRGEGHHHHHH | soluble
7 | GPLGSMEPPLPVGAQPLATVEGMEMKGPLREPCALTLAQRNGQYELIIQLHEKEQHVQDIIPINSHFRCVQEAEETLLIDIASNSGCKIRVQGDWIRERRFEIPDEEHCLKFLSAVLAAQKAQS | soluble
8 | MEENSKLGLIDVFTGDGKGKTTAAFGLAFRALGWGYRVYILQFMKTGVYGENKSAIMFDRNLKVDFVGMPYFIAWENEIPKEDLDKVKNVVICKKGHPPDDYRRAVKERFDRSLEELKSGKWDMFIYDEINVALYYYLLSMEEVMEIFKAKPDHTELVFTGRKMPKEIMERADLITEVSSPRHPYQRGILARRGVDF | not soluble
9 | GFILKRGWTVLESKYLDLLAQKYDCEEKVVTEIINLKAILNLPKGTEHFVSDLHGEYQAFQHVLRNGSGRVKEKIRDIFSGVIYDREIDELAALVYYPEDKLKLIKHDFDAKEALNEWYKETIHRMIKLVSYCSSKYTRSKLRKALPAQFAYITEELLYKTEQAGNKEQYYSEIIDQIIELGQADKLITGLAYSVQRLVVDHLHVVGDIYDRGPQPDRIMEELINYHSVDIQWGNHDVLWIGAYSGSKVCLANIIRICARYDNLDIIEDVYGINLRPLLNLAEKYYDDNPAFRPKADENRPEDEIKQITKIHQAIAMIQFKLESPIIKRRPNFNMEERLLLEKIDYDKNEITLNGKTYQLENTCFATINPEQPDQLLEEEAEVIDKLLFSVQHSEKLGRHMNFMMKKGSLYLKYNGNLLIHGCIPVDENGNMETMMIEDKPYAGRELLDVFERFLREAFAHPEETDDLATDMAWYLWTGEYSSLFGKRAMTTFERYFIKEKETHKEKKNPYYYLREDEATCRNILAEFGLNPDHGHIINGHTPVKEIEGEDPIKANGKMIVIDGGFSKAYQSTTGIAGYTLLYNSYGMQLVAHKHFNSKAEVLSTGTDVLTVKRLVDKELERKKVKETNVGEELLQEVAILESLREYRY | not soluble
10 | GPLGSPQMAQGTLIRVTPEQPTHAVCVLGTLTQLDICSSAPEDCTSFSINASPGVVVDIAHSPPAKKKSTGSSTWPLDPGVEVTLTMKAASGSTGDQKVQISYYGPKTPPVKALLYLTAVEISLCADITRTGKVKPTRAVKDQRTWTWGPCGQGAILLVNCDRDNLESSAMDCEDDEVLDSEDLQDMSLMTLSTKTPKDFFTNHTLVLHVARSEMDKVRVFQATRGKLSSKCSVVLGPKWPSHYLMVPGGKHNMDFYVEALAFPDTDFPGLITLTISLLDTSNLELPEAVVFQDSVVFRVAPWIMTPNTQPPQEVYACSIFENEDFLKSVTTLAMKAKCKLTICPEEENMDDQWMQDEMEIGYIQAPHKTLPVVFDSPRNRGLKEFPIKRVMGPDFGYVTRGPQTGGISGLDSFGNLEVSPPVTVRGKEYPLGRILFGDSCYPSNDSRQMHQALQDFLSAQQVQAPVKLYSDWLSVGHVDEFLSFVPAPDRKGFRLLLASPRSCYKLFQEQQNEGHGEALLFEGIKKKKQQKIKNILSNKTLREHNSFVERCIDWNRELLKRELGLAESDIIDIPQLFKLKEFSKAEAFFPNMVNMLVLGKHLGIPKPFGPVINGRCCLEEKVCSLLEPLGLQCTFINDFFTYHIRHGEVHAGTNVRRKPFSFKWWNMVP | soluble
11 | MAHHHHHHMLCAGKGRVEATQDVARQFLRKCVERLEKNEKDMAVKFDITMTMVSLRCADQCCDLLKPGASYEKMMMGSSPVYGPCLLGLETKVHKTASECVSSFDAGLKNAKEDKEIVAAFFVLKTIKKTGAEEEVHLSSLCIALCGETVAHKTDIRDKAASSPHRLFRYAVDGACVTVSGLWIVSKDVDAREGLEVERKMREVKNQPPRSGNVKRFVDYTYKEIMRQKEKLESATGSEKKTREAQIERMEEMVKDAKELLTSPENTRPKGYSMGR | not soluble
12 | MCELLGMSANVPTDICFSFTGLVQRGGGTGPHKDGWGITFYEGKGCRTFKDPQPSFNSPIAKLVQDYPIKSCSVVAHIRQANRGEVALENTHPFTRELWGRNWTYAHNGQLTGYKSLETGNFRPVGETDSEKAFCWLLHKLTQRYPRTPGNMAAVFKYIASLADELRAKGVFNMLLSDGRYVMAYCSTNLHWITRRAPFGVATLLDQDVEIDFSSQTTPNDVVTVIATQPLTGNETWQKIMPGEWRLFCLGERVV | not soluble
13 | MTQRDTGRLDAIVLAAGRGVRFGGGKLTALLDGDPLVAAALLTAFLAPARRVVVAVGPEPDVRQAVEATATRLLARERLVLVPIDDPSAGMGASLAAAARSLPGDTDGVFVFLGDMPRIDPATPRHLAAALRDPGDIVAPTYLGRRGHPVLFGARWAPVLGALSGDEGARAIVDKAGESLVLVPVDDPGVHLDVDRPSDLARVQTDRRTLLEHHHHHH | soluble
14 | MREFGEKIKRLRLAKKISRSEFCGDESELSIRQLIRIENGESRPILTKLKYIAERLGVEDYKLMPSYIELDKEYLELKYFLMRTPTYEDETIAQKKESVFDKIFEEYYDRLPEEERFIIPNYSYLALTNYTVQKLPEKLVEILSFW | not soluble
15 | AIASSAIERKSLDPSEEPVDEVLQIPPSLLTCGGCQQNIGDRYFLKAIDQYWHEDCLSCDLCGCRLGEVGRRLYYKLGRKLCRRDYLRLFGQDGLCASCDKRIRAYEMTMRVKDKVYHLECFKCAACQKHFCVGDRYLLINSDIVCEQDIYEWTKINGMI | soluble
16 | GQHTLKQFAADSALTTTTPLCSEVPLFDINALGDWTYLGTSLPAKFAKLFASILHCIDDEYFLITPVEKVRVQVEDAPLLIVDFERAQPHSLLNVSTSIGTLHHNVDIKQMKLTDDSVYLPLERGLWGKLGRACYYNFVNEFNLSDLNEQ | soluble
17 | MGSDKIHHHHHHMCRLLAYLGSPVSLEHLLYKPEHSLIVQSYKPREMTSGAVNADGFGVGWYHSQKDIEPFTYKNTLPIWNDINLLSLSRYIESKCVLAYVRSATSEQAVDFANCQPFKHQQQLFIHDGRIENFHKTLHRKIRSTLTQDFYEKINGNTDSEHIFALLLSQSQINKHRPPEYALRTTLLTLLEMAKRYQVEASINVIFSDGHRLIASRFATTSLAPSLYWVRDDPTFSNSVIIASEPLFIGNWNAFPENSIITVGADCEIQIEQI | not soluble
18 | GPNSGTLALLLDEGSKQLPQAIIIGVKKGGTRALLEFLRVHPDVRAVGAEPHFFDRSYDKGLAWYRDLMPRTLDGQITMEKTPSYFVTREAPARISAMSKDTKLIVVVRDPVTRAISDYTQTLSKRPDIPTFESLTFKNRTAGLIDTSWSAIQIGIYAKHLEHWLRHFPIRQMLFVSGERLISDPAGELGRVQDFLGLKRIITDKHFYFNKTKGFPCLKKAEGSSRPHCLGKTKGRTHPEIDREVVRRLREFYRPFNLKFYQMTGHDFGWDG | soluble
19 | MAHHHHHHMADATLLHHLIEVLPKAELHVHIEGTLSPELLFELAKRNGVQIPYKTVEEVRVAYNFTDLQSFLDLYYEGMSVLITEDDFEDLAYAYTRVMHESRVVHAEPFFDPQGHLCRGVTFRVLYDGLMRGFRRGEAEFGVSVMLIFSFLRHLSEEECLALVLDDMHPDNGQYIRELFVAKAFVAVGLDSSELGHPPEKFARLYRYCREELKVPFLVAHAGEEGPPEYMRDAMSMLKVDRIDHGVAARLDQALCKDLREKRIPLTVCPTSNVALKVFQDRATCGAVVMDLILTEGLCVTINSDDPAYFGGDIRESFRILAETGRLTPATLKQLVLNSFSSSFIADDSKRAYKERVEKVFKDVCGGTYE | soluble
20 | MNINLSVPYAAEGPGPTINTLGQVDGEDVVSISSADLDETEGNLNMTTVSVRSGMTLSQVISRWLFTDDTIVPIEQVFPPGQSTEEVEESNRTAFISSESSATIAAMNYLNIPVEVEVAEVLTDSAATGIFEPGDKLLSIDGTAISTPGDAQTIVRSKAPGDEITISYERNDAESQATITLREHPDDSSVALLGISMLSVPSSAIEVDYNLEDIGGPSAGMMFSLAVVDKLSPGALNGGKFVAGTGTIAEDGSVGPIGGIAHKVRAAEDAGAEVFLSPADNCAEAMSAKPQDMTILKVDSLSQAIDQMAAYNEGLEHHHHHH | soluble
